According to paper PMC12392869 (Advanced Materials (Deerfield Beach, Fla.), 2025):

Molecular target: T1, integrin α5β1 on cells (human (endogenous in K562 and MCF10A), UniProt P08648 42-1049; P05556 21-798)
T1 construct: integrin α5 subunit, endogenous; integrin β1 subunit, endogenous; also called intact α5β1; cellular α5β1; source: endogenous, on K562 cells (flow cytometry) and on MCF10A Cas-mScarlet cells (TIRF microscopy)
Assay: flow cytometry on cells; competition: unlabelled competitor titrated against 5 nM CF647-NeoNectin on K562 cells, L15 medium with 1% BSA, 2 h at room temperature; KD = EC50/(1 + CL/KD,L)
Conditions: one partner purified

T1 sequence (P08648 42-1049, chain 1 of 2): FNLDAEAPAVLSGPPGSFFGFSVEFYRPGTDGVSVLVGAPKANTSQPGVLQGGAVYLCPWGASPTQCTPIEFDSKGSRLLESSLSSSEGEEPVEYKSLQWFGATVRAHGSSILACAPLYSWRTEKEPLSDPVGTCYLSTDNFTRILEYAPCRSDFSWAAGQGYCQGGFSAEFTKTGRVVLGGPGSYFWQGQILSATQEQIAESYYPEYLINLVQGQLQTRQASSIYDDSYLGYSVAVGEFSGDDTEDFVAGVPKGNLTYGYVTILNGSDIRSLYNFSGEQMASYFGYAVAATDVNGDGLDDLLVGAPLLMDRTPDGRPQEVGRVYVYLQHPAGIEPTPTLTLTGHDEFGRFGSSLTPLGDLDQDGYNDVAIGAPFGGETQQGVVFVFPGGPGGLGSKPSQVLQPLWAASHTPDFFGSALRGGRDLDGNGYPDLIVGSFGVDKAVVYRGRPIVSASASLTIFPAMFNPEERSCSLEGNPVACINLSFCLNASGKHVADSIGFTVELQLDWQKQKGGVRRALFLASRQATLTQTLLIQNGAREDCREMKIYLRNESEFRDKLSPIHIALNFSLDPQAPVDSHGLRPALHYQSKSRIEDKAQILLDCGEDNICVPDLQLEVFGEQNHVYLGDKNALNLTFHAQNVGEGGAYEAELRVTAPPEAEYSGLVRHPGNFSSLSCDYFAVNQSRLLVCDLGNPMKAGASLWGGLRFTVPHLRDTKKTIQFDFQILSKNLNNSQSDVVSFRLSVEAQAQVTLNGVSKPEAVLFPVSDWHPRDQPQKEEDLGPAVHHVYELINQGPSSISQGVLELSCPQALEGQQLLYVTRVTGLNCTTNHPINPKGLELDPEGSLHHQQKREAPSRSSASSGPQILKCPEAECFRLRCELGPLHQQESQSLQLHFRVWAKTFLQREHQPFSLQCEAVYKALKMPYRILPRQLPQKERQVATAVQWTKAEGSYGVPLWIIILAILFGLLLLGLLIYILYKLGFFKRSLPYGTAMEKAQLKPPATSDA
T1 sequence (P05556 21-798, chain 2 of 2): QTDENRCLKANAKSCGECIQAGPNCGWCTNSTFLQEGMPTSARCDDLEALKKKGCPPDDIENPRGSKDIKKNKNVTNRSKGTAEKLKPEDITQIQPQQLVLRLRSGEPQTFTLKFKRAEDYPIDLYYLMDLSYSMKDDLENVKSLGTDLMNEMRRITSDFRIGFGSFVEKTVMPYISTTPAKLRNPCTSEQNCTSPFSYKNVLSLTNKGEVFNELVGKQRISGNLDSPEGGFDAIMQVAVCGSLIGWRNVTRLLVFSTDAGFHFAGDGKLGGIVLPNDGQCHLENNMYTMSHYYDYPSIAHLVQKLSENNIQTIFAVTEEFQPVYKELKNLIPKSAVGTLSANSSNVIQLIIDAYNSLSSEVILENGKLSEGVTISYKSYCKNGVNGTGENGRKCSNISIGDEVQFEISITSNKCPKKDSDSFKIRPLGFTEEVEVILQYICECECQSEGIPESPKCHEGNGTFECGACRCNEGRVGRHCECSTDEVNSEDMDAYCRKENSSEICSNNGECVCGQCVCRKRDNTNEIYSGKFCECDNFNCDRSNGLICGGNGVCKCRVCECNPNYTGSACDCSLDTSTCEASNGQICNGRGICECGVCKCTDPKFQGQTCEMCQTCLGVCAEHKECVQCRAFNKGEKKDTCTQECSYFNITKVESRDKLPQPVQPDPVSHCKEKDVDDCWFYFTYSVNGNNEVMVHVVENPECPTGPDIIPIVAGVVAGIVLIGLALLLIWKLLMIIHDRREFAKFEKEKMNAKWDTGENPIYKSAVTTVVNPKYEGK

**Q.** For GRRGDGATGH (source: synthetic peptide) [RGD peptide (GRRGDGATGH)], which Kd is on record?
**A.** 150 µM
